In the nanobody polyreactivity screen of Harvey et al. (2022):

Experiment: yeast display, Sf9 membrane polyspecificity reagent, FACS + sequencing; frameworks hold sequencing errors
Procedure, shortened: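 Genes from sorted yeast were amplified by colony PCR, read by MiSeq 2 × 250 sequencing and filtered on CDR length. These cells carried a synthetic nanobody library in Saccharomyces cerevisiae BJ5465 and were sorted by FACS into low and high (top ~1%) gates on anti-HA and streptavidin fluorescence. Polyreactivity is labelled according to the gate of origin.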

Sequence	polyreactivity (PSR sort gate)
QVQLVESGGGLVQAGGSLRLSCAASGSIFPYAMGWYRQAPGKERELVAAITSGVRTNYADSVKGRFTISRDNAKNTVYLQIYSLKPEDTAVYYCAARYFPHYYSKYDYWGQGTQVTVSS	low polyreactivity
QVQLVESGGGLVQAGGSLRLSCAASGFTFGFNAMGWYRQAPGKEREFVASITYRGGSTYYADSVKGRFTISRDNAKNTVYLQMNSLKPEDTAVYYCAAASPWRRYISDYWGQGTQVTVSS	high polyreactivity
QVQLVESGGGLVQAGGSLRLSCAASGITFASYAMGWYRQAPGKERELVAGISGSGGRTYYADSVKGRFTISRDNAKNTVYLQMNSLKPEDTAVYYCAARQWDIRASPPRYYRYDYWGQGTQVTVSS	high polyreactivity
QVQLVESGGGLVQAGGSLRLSCAASGNTFYGYAMGWYRQAPGKERELVASITLSGDSTYYADSVKGRFTISRDNAKKTVYLQMNSLKPEDTAVYYCAGVYTYPLGYYHYTYDYWGQGTQVTVSS	low polyreactivity
QVQLVESGGGLLQAGGSLRLSCAASGSTFYKYAMGWYRHAPRKERELVASISRSGRSTYYADSVKGRFTISRDNAKNTVYLQMNSLKPEDTAVYYCAATWRQHPGSMGYWGQGTQVTVSS	high polyreactivity
QVQLVESGGGLVQAGGSLRLSCAASGRIFAAYAMGWYRQAPGKERELVATITRGGSTYYADSVKGRFTISRDNAKNTVYLQMNSLKQKDTAVYYCAVKRGFTQYKPFNYWGQGTQVTVSS	high polyreactivity
QVQLVESGGGLVQAGGSLRLSCAASGSIFGGYAMGWYRQAPGKERELVAAISWSSSSTYYADSVKGRFTISRDNAKNTVFLQMISLKPEDTAVYYCATGIYPQTSDYVYWGQGTQVTVSS	low polyreactivity
HVQLVESGGGLVQAGGSLRLSCAASGYILDRNAMGWYRQAPGKESELVAVISWGGTRTYYADSVKGRFTISRDNAKNTVYLQMNSLKPEVTAVYYCARYPYYYGYAGRYDYWGQGTQVTVSS	high polyreactivity
QVQLVESGGGLVQAGGSLRLSCAASGFTLSYYAMGWYRQAPGKERELVASISAIGGITYYADSVKGRFTISRDNAKNTVYLQMNSLKPEDTAVYYCARQGRRYRRFDSWGQGTQVTVSS	high polyreactivity
QVQLVESGGGLVQAGCSLRLTCAASGFIYLSYGMGWNRQAPGKERELVASITSDGGSTYYADSVKGRFTISRDNAKYTVYLQMNSLKPEDTAVYYCAADSVSPWYYGWYYRYRGYGYCGQGTQVTVSS	low polyreactivity
QVQLVESGGGLVQAGGSLRLSCAASGSILYYNAMGWYRQAPGKEREFVAAISDSGSSTYYADSVKGRFTITRDNAKNTVYLQMNSLKPEDTAVYYCNTEIYVDIISDYGYWGQGTQVTVSS	low polyreactivity
QVQLVESGGGLVQAGGSLRLSCAASGSIFGYYAMGWYRQAPGTERELVAAITTGGSTSYADSVKGRFTISRDNAKNTVYLQMNSLKPEDTAVYYCAARPHHGWLEYGSAGLGYWGQGTQVTVSS	low polyreactivity
QVQLVESGGGLVQAGGSLRLSCAASGRTFGINAMGWYRQAPGKERELVAVISFGDGGTYYADSVKGRFTISRDNAKNTVYLQMNSLKPEDSAVYYCAAEVVAQMNYWGQGTQVTVSS	low polyreactivity
QVQLVESGGGLVQAGGSLRLSCAASGRIFGRYTMGWYRQAPGKERELVAAISARGGSTYYADSVKGRFTISRDNAKNTVYLQMNSLKPEDTAVYYCDAEYVVWYLDRFNYWGQGTQVTVSS	high polyreactivity
QVQLVESGGGLVQAGGSLRLSCAASGRTFDYNAIGWYRQAPGKERDFVAAISGRGGSTYYADSVKARFTISRDNAKNRVYLQMYSLKPEDTAVYYCAADLRFRYSGRYDYWGQGTQVTVSS	high polyreactivity
QVQLVESGGGLVQAGGSLRLSCAASGRIFSGYVMGWYRQAPGKERELVAVISRSGGSTYYADSVKGRFTISRDNAKNTVYLLMNSLKPEDTAVYYCAAKHIDGSRGYVYWGQGTQVTVSS	low polyreactivity
QVQLVESGGGLVHAGGSLRLSCAASGGIFGYYTMGWYRQAPGKERELVAAITWRGSTYYADSVKGRFTISRDNAKNTVYLQMNSLKPEDTAVYYCAARYYSPYGYWGQGTQVTVSS	high polyreactivity
QVQLVESGGGLVQAGGILRLSCAAYGFTFYSYSMGWYRQAPGKEREFVAAGSTYYADSVKGRFTISRDNAKNTVYLQMNSLKPEDTAVYYCAADPWIYVQSYGFWGQGTQVTVSS	low polyreactivity
QVQLVESGGGLVQAGGSHRLSCAASGFIFYVYAMGWYRQAPGKERELVATINGRRSRTYYADSVKGRFTISRDNAKNTVYLQMNSLKPEDTAVYYCAAVAWVLRYGRGDYWGQGTQVTVSL	high polyreactivity
QVQLVESGGGLVQAGGSLRLSCAASGRIFQKYAMGWYRQAPGKERELVAAITTSGGSTYYADSVKGRFTISRDNAKNTVYLQMNSLKPEDTAVYYCAAKSTLSKEGYWGQGTHVTVSS	high polyreactivity
QVQLVESGGGLVQAGGSLRLSCAASGITFSYNAMGWYRQAPGKERELVAAISDIGGSTYYADSVKGRFTISRDNAKNTVYLQMNSLKPEDTAVYYCAADEYYQDESDYWGQGTQVTVSS	low polyreactivity
QDQLVESGGGLVQAGGSLRLSCAASGFIFYSNAMGWYRQEPGKERELVAAITSGGGSTYYADSVKGRFTISRDTAKNTVYLQMNSLKPEDTAVDYCAVSIGRYPYRYGYWGQGTQVTVSS	high polyreactivity

Sequence	polyreactivity (PSR sort gate)
QVQLVESGGGLAQAGCSLRLSCAASGRLFRGNAMGGYRQAPGKERELVARITGNDGDTYYADSVKGRFTISRDNAKNTVYLQMNSLKPEDTAVYYCATDTSSYRRRYYYWGQGTQVTVSS	low polyreactivity
QVQLVESGGGLVQAGGSLRLSCAASGIIFRVYAMGWYRQAPGKERELVASITDRGTRTYYADSVKGRFTISRDNAKNTVYLQMNSLKPEDTAVYYCADEPNYLYWGFFSVGYDYWGQGTQVTVSS	high polyreactivity
QVQLVESGGGLVQAGGSLRLSCAASGSTFPSYAMGWYRQAPGKERELVAAISRSGGSTYYADSVKGRFTISRDNAKNTVYLQMNSLKPEDTAVYYCAARGHLRYESDYWGQGTQVTVSS	high polyreactivity
QVQLVESGGGLVQAGGSLRLSCAASGSTLYVYTMGWYRQAPGKERELVATINTSGSRTYYADSVKGRFTISRDNAKNTVYLQMNSLKPEDTAVYYCAAEYVGKGTPDDYDYWGQGTQVTVSS	high polyreactivity
QVQLLESGGGLVQAGGSLRLSCAASRTISYAGTRLWYRQAPGKEREFVAGIGVGSNTNYADSVKGRYTIIRDNAINTVYLQMTSLKPEDTAVYYCAVGGYAPLGRPFWGQGTQVSVSS	low polyreactivity
QVQLVESRGGLVQAGGSLRLSCAASGITSPYAMGWYRQAPGKERELVAAISWSGSSTYYADSVKGRFTISRDNAKNTVYLQMNSLKPQDTAVYYCNTVGTRQPMDYWGQGTQVTVSS	high polyreactivity
QAQLQESGGSLVQAGGGLRLSCAASGYISVGSVMGWYRQAPSKERELGASIDQGANTNYADSVKGRFTISRDNAKNNVYLQMNSLKPEDTAVYYCATETTYILNYWGQGTQVTVSS	low polyreactivity
QVQLVESGGGLVQAGGSLRLSCAASVRTFLYNAMGWYRQAPGKERELVASITTSGGSTYYADSVKGRFTISRDNAKNTVYLQMNSLKPEDTAVYYCAAGLPKWYDYGRLVKYNYWGQGTQVTVSS	low polyreactivity
QVQLVESGGGLVQAGGTLRLNSAASGRNFYDYAMRWYRQAPGKERELVASISGGGSTDYADSVKGRFTISRDNAKNTVDFQMNSLNPEDTAVYYCAAQYYLYRSRFDYWGQGTQVTVSS	high polyreactivity
QVHLVESGGGLVQAGASLRLSCAASGSIFVGYAMGWYRQAPGKERELVASISSGDDTYADSVKGRFTISRDNAKNTVYLQMNSLKPEDTAVYYCAKDYISVDWAYDYWGQGTQVTVSS	low polyreactivity
QVQLVESGAGLVQAGGSLRLSCAASGSIFWYNAMGWYRQAPGKERELVAAITSGGTTSYADSVKGRFTISRDNAKNTVYLQMNSLKPEDTAVYYCNADAVPFPTLVTYLYDYWGQGTQVSVSS	low polyreactivity
QFQLVESGGGLVQAGGSLRLSCAASGSIIGPYAMGWYRQAPVKERELVAVISSGDSKNYADSVKGRFTISRDNAKNTVYLQMNSLKQEDNEVSYCRCKYDVAHHFWVYRYDYWGHGTQVTVSS	low polyreactivity
QVQLVESGGGLVQAGGSLRLSCAASGSTFDYYAMGWYRQAPVKERELVAAITGTGGSTYYADSVKGRFTISRDNAKNTVYLQINRLKPEDTAVYYCAADTYLGWSYYWGQGTQVTVSS	high polyreactivity
QVQLVESGGGLVQAGGSLRLSCAASGLIFYKYAMGWYRQAPGKEREFVAAISGSGGSTYYADSVKGRFTISRDNAKNTVYLQMNSLKPEDTAVYYCAVRQRYGPARYDYWGQGTQVTVSS	high polyreactivity
QVQIVESGGGLVQAGGSLRLSCAASGRTLALYTMGWYRQAPGKERELVAAINWSGTSTYYADSVKGRNTISRDNAKNTVYLQINILKPEDTAVYYCNADGSAYIEDGYDYWGQGTQVTVSS	low polyreactivity
QVHLVESGGGLVQAGGSLRLSCAASGSIFNVNAMGWYRQAPGKERELVAAISSGGDTYYADSVKGRFTISRDNAKNTVYLQMNCLKPEDTAVYYCAKQSYTLYTLLYDYWGQGTQVTVSS	low polyreactivity
QVHLVESGGGLVQAGGSLRLSCAASGIIFYWNPMGWYRQAPGKERELVAAISWSGGSTYYADSVKGRFTISRDNAKNTVYLQMNSLKPEDTAVYYCNAVTTYYPQFRPGAIPGVGYGFWGQGTQVTVSS	low polyreactivity
QVQLEESPGGLVQAGGSLRLSCAASGRIIGRYAMGWTRQAPGKERELVAAISYRGGSTYYADSVKGRFTISRDNAKNTVYLQMNSLKPEDTAVYYCAKDSRSWPFKYDYWGQGTQVTVSS	high polyreactivity
QVQLVESGGGLVQAGGSLRLSCAASGRIFYWNAMGWYRQAPGKEREFVAAISWSGGSTYADSVKGRFTISRDNAKNTVYLQMNSLKPEDTAVYYCATRVYRSFRAYDYWGQGTQVTVSS	high polyreactivity
QVQLVESGGGLVQAGGSLRISCAASGRIFHANAMGWYRQAPGKERELLAGISRNGGRTYYADSVKGRFTISRDNAKYTVYLQMNSLKPEDTAVYYCAADGLTGSKYRATGYYWGQGTQVTVSS	high polyreactivity
QVQLVDSGGGLVQAGGSLRLSCPASGFTFVIYAMGWYRQEPGKESELVAAIRSGGRTYYADSVKGRFTISRDNAKNTVYLQMNSLKPEDTAVYYCAAVPDLKWFGYEYWGQGTQVTVSS	high polyreactivity
